# Measured values reported in a protein production outcome set (Wang et al. 2014).
# Test: label from the status in PepcDB records
row,Sequence,protein production
1,MLLEVIPLTLPLLLTLLPIVVILVMLLVFRKAADVSGIIGWLAISVVAWLGFQTAPEVILRSTAAGFIRSFSVSLIVATSLLQMALMEKTGALRRITIFIRTIASDNRAVQIMMINIGFGTLMVAVGATPVSILPPILLAMGYSTYVAIALPAIGYDSLCTYALLGAPIVVFVDIANSFLGKGNEIALHQAGMVFYMFLPVVSTMIGFCMLWIVGKWQAIRDGWLPCLLTGAVIGVVARFTNQYDNLVVLTGVLCGIAVIAAMAAYLVVTGGKVIDRSLLSAEEREFAAAMPLWRAFMPWTLLVILILVLNVPQDLFSWLYRTMKLPIAGLTADGKPLDTRALWQAYTWILVSTILAVPFLKPTGEQLRETVRTWVRRAPRPVFAAAVFFAIGEIMNMAGYDMAAGRFVVPSMVTVLADSSALAFQGMYGEVVAFIGLFGGFITGSEASTIAMFAKYTMTTAKNLDMPLSGLIIVTAGLAFGGGLASVISPAKLQNAAAAIDRIGEEGKVIRIAFVFALLLTLVTSLFVVVLLTVNGMGRVS,failed
2,MLLFEQPVDLEKNNEDDTNIKPFAISRHFLLKLLLCGIILIELLLYSKCPKPIDNGPRTIANRSNTYFNGTHDFKTLTILISIDGFHPRLIDAKYTPFLYNLHNLRSPYDMNITTAPYMIPSFPTQTFPNHWSMVTGKYPIEHGIVSNIFWDNFTSSEFRPNNLDARIWSNTADPIWQLLQTESQGEYKVATHMWPGSEVVYEDHGDVPRERMPFYFGKFNQWEKLQDKLAQIFRYIDMPQLKDRPELVISYIPNVDSYGHSFGYDLRDKRLQKLIGEVDGFFLDLIEGLQKRNLLKISNVMIVSDHGMSNVNANDGEHVVVWERVFPADAMSAFISHLYNEGPMMMVCLKNPRDKQWICDLIEAQLEKAYGDEISRKFHVILKEDFDPSWKYFQYDNRKHRYDDRVGDIWILADEYYAIVKEMGDVPIGIMGTHGYNFNNCSDMASIFIGMGPMFNNEVVPPFENIEVYNMLIKASALLGEEKTKKEKSLLQ,failed
3,MLLHNGPMKLAEALIERADLQKRAAQLEERLVQNMQVQEGEVPAEDPRELLNELLTVSSALEVLLPRIHRANLSATLPSGQTLTDALTRRDLLDARLKALRRAATAAAERQTRYSNSELRMVAVIPPSELQKLADVMAKERRELEVQIQQANWQTDLPGSGALEHHHHHH,not failed
4,MLLQKSKVLVLNASYEPLSICDARNAVLLLFCGKAMMVASHPEHRIRTVTENFPLPSIVRLMVYVRIDYRGAVLNRKNLFRRDGFRCQYCGCKDGSLTVDHVMPKSRGGEDTWENLITACKSCNTKKGNRTPSEAGMAMLNKPCRPSNITLMRQHYRSISDEWKPYLFMS,failed
5,MLLRLPLLDLTPLPAPFYELAKDVEQSLITDPEKAREVAAKLHAATDTAQGLHRAYAELLLARTLLSTRQWQAALESFEKARKSLLALERAALVAHAVLGRVYILLGTGQYAEASAEAAELEAQLANGPVQAMEIRALALNAIAYAEYAQGRPVQAINHLKEALKLREQLSPIIIAACLCNLGISNIEQGNYREAIYWLMEAYRAHPDSNEDRQLELATLTNLAYAHYLAGDLSLATEITQKAYAAAGEWQSYKVRAYSALNLGTYNTELQQTGRARSYLQEALVLSQTQPELTADAVLRASILDSLGTLEHQDGNSESALELYTRAREIAQRDELPAVEALTQLNIGRMLGQLGRPEARAELERALELAVAACLFKEQFEAHTALAELTAAAADWRSAYRHQQELTRLKLHLLEGEHERQRKELRAELDLEQMRREGELSRERLKIEVAARERAEAETLERTQQLAQAQREVVLCLALAAEYRDSITGEHIKRVGTFAAHIALALGWSQADAELLMLASRLHDVGKIGIPDSILLKPGKLTEVEYVQMQAHTLIGSQILGQGNSALLKLAQTIALSHHERWNGEGYPYGLHGEAIPLAGRIVAVADVYDALIQRRPYKAAWTPEQAAAELSAQAGRHFDPALVEVALRILNDVHYSVDELKELGPPTVGPAAASLERELALRTQELQEARKNAGELLQLALSDSLTGLHNRRALELDLEQRIYPGAVDFYMTSLDLDSLKEINDSQGHQYGDQLLRQFALCLRQSCAAGKTYRIGGDEFAVLWNLDVTEQDIVQVLRRLPQNLRVTGQPGISFSYGSACYNRDAATAGDLLRVSDARMYRMKVGRRGEETDSIWFKEDH,failed
6,MLLSIITVAFRNLEGIVKTHASLAHLAQVEDISFEWIVVDGGSNDGTREYLENLNGIFNLRFVSEPDNGIYDAMNKGIAMAQGKFALFLNSGDIFHQNAANFVRKLKMQKDNVMITGDALLDFGDGHKIKRSAKPGWYIYHSLPASHQAIFFPVSGLKKWRYDLEYKVSSDYALAAKMYKAGYAFKKLNGLVSEFSMGGVSTTNNMELCADAKKVQRQILHVPGFWAELSWHLRQRTTSKTKALYNKV,failed
7,MLLTLEQELFTQFGYAAFKPGQKEVITNLLDGMNTLAVLPTGTGKSLCYQFVGQKLEGLTVIVSPLLSLMEDQMRQLQRQGIKGAVALNSTLQYSEKRYILAKMFQYDYLFLSPEMLLQQEVLSVLQRQKIALFVVDEAHCVYQWGVDFRPEYSKLDLVQKQLDFPLTLALTATATPVVQHAIIKQLFSHGSYQEVLSSVNRKNIGLFVKETSEKEEVLLDYLSKTAGKIIIYCATRNKTEQISQLIQAKTSFKVAYYHGGLEASERSRLQEQFIDNQIDILCATNAFGMGIDKPDVRGVIHFDLPDSLENYLQEIGRAGRDGQKSWALLLYKKGDEFIHRFFLEETRANRATLKSLIEGEEQAGLLENATELQQKWVQGYLAKDYSFEELEHRLEEKEKDRQAQLRGMLTYIETTTCRRTLIQTYFQEPIVKQSPETCCDNCALFFDIYQDSIVKSNKTSNQNEEGWRSKFLKLFKERD,failed
8,MLMKVAEFERLFRQAAGLDVDKNDLKRVSDFLRNKLYDLLAVAERNAKYNGRDLIFEPDLPIAKGLQETLQEFRRMDTALELKPVLDALAALPPLDLEVAEDVRNLLPELAGALVVAYARVLKELDPALKNPQTEHHERAERVFNLLL,not failed
9,MLMMLKSLRVNRILKLLLLAIFSSFMIIACGDRLTQYTVSQKISPSTECQVIQHQVGETQVCGQPQKIVALGPNVLEILLALDVQPVGFADHVPLHQGNYDNPSQQIPYLGERVTGELINLGLAYTPSIEALLKIKPDLIIGNELNRSQYEMLSKIAPTLLFPRFDAQPNLLAISKILGRSEKAKKILADSDQRLAIAQKALSDIVANHPQVLMLVSLGQSISEQLRFPRRDSFCDSLVTNLGFKLMSPSSLVPADKSVPPPLSIETLPQFNSADSIILLGANFSQVQLSDDKYFEPQMQKLKQQWSENAIAQSLTASKEGRVYFIPAYLCLGLPGPIGTELYLQELQKQLLSPQGK,failed
10,MLMNLPEILKNQKARARKFKPVKMSKRTELWYRQQLKQFVKMMTNDVERALQQPQGSFFMDDAKGFQAISAKALMKVLEKYEKSDRTSQAENIANGFVSRGDAQNHAEVSTNLKNQTGIDLSAYLRNSPNITEKVNALTAGNIQLIKSIRSQYLDKVQNAVMQAMVRGSLNKDLAAQIKDLGKTTEKRAMFIARDQSSKLNAALTQARHEEVGIKKYMWSASLDERVRESHAEKDGQIFEYANPPADTDHPGHDFNCRCVQIPVLDNNEQIVKNSPIVSQQEKQQMRSEWSDDFPDTIIDRKLGDATSHPLYENAKKGSIEDAYQLAKDLVTDDAVNKLKQLVGNKNAILIPVHAEEAVGQNMIPVAIATVLSKKLHIPVDLSIVQATKVSRTGGDGWHRLVYSPAFDGIVPKDKYAIILDDTQTQGGTLASLKGYIIKEKLLHLML,failed
11,MLMRTTRKISITDYGVYYYKTCRSIFDLLHESAEVASNVIHNPEGVLNISMPRSFGIFGFLPTLEKFYRIHPKIRVDVSISDSLVDFSENRFDAAVRLGVLSDSSLVARPLRPYKLVLCASPAYLARKGRPATPKDLIVHDCIATYFDEYRTAWNTLQNTWEFLCADGEFIKVSVPARMQVNDAQGVCIMVLSGQGIALLPEIIVSAHLTEGRLIELLPDYQIPSRPMSLVYRKNSLMPFKLKAFIGFLMDEFS,failed
12,MLNLQRMSLFIAVVDSGSFTAAAAASGQTKAVVSFNIRQLEKELGVTLLLRSTRRLTLTDAGVLFYQKGVNLLNAAKNLQDEVRASHSGLGGELRITTTSEFGEQVVIPVLAQFSQRHPDLRIRHMSSSHHADLIAERFDVAIRLGSLADSRYRAALISRFTILPVAAPQWLARNPVSSLESLAQAEWIIHERLPTPLRWTVTNNHGQHSRLEISKAGKISVDSARSLMAFALAGSGVALLPQWLVNTALEDGTLIHLLPDYHFPRQGIYAVYPDARHVSTKVRAFIDFLRSQWDCGEHAPSS,failed
13,MLNQFPKLRLTPFTTGIVAIFLFSLVIRFWNLGQFNQLVFDEVYYAKFASDYWLGNDFFPSHPPLSHYLIALAMGLGQVFPVNPEQVNDLTGAVRSTWSYRWLNALTGATIPLLLGAIAYLLTQRRLVTLLTMGLVALDGLFLVESRYALNNIYLVFFGLLGQALVLWHLRQEKLWQLILGGISLACAGSVKWNGFAFLLGVYLLWAIAWVKPFFNQGWTKGERQANSLQLLDRDGENNQGFLSRWLIISPLKFAIWLVLVPVITYSVIWIPHLLMNGEYASLEGFWRIQRETWQYHRRVGNSPDIHPYCSPWYSWLLMARPIAYFYQKSGQFGLINDVHAMANPILLWFSTGAMALLTGTVIWQKIRQFSSQTINAPLRGITLYIEVNYAVNLLPWLGISRCTFFYHYLPAYAFSILALALILETLLDSPRHSHNVIAWAVLTLVAIAFWYWLPVFLGLPLTPRGFALRMLFPSWI,failed
14,MLNSRRIVVVLPAYNAEKTLEMTYAEIPFEHVDHVLLVDDASRDRTAQVAERLGIKTIVHDRNKGYGANQKTCYRAALDLGADIVIMVHPDYQYTPKLITAMAAMIAYGEFDAVLGSRILGIGALKGGMPLYKYVANRVLTLVENLLLSHKLSEYHTGYRAFSRQVLEQLPLDANGDDFVFDNQMLAQIIWHGYRIGELSCPTKYFEDASSINFRRSVIYGLGVLGTALEFRLARMGLIRSGRFTPRNDQAAAQLEHHHHHH,not failed
15,MLNTSDIGKVFPSVTAVVEKGRLRFFAKAIGENNPIYTDEAAAKDAGYESLPMPPTFFFSLKMDVPNPFENYEKVGASLAKILHANQAFVYHQSVVAGDSLTFESHIADIYDKKAGALEFLVEKTKVSNQRGQHVADMTTTLVVRNLEHHHHHH,failed
16,MLPADGIVCFPGQTWEKVLSKVKKAVVFMDDRCSESLHWNGGAALLFEAGARNIKQFSSFEAGAQNEPKAVFVVSTVLKGRTADIIKDIISLSHFQYCVVFTTVPHSIHLLANNVNADLEGNPVFEQFEEKLCEWMGDMNYTAEVMHAPVVFAPLTEHLHLLPAFSNLFPLLDVDLESINEKRPEKKRFGSLMDMDVHSLPPGLQIQIKTLALTLNGLFEFISTREESFSVGPMSRLIATELANLPQAKNRRKTAPNKASVVFVDRTLDLTGAVGHHGDNLAEKILSVLPQLPGHVTDVQVDMLELTHLKPTTDTKGILAPGCLAQNQSATAKLLWETMLVAKQKEAVIEVRRQLVEAASKENLPIKMSLGRVTAEQLCSYVQLFRDSWGALESHSGVLQLGLAAAQALRHPALQRWDACLAFERLLLQALGDSDLAGVLKQLLPLIKSSESGTGSDLSMDDLLVLLVYVYSVAKEACSGGSEEEKQVEKVEQELIGALTLRLTRETTLSPLVQEVTGVSCPEELTMECAHSVLESMFGTLRGVARARDHLKNFSSVFTPGDGAHQDQHRYILILMIQDQHQ,failed
17,MLPFANYYISSPSVSEKNAINNNVNKRRKKKRAMMVYGGGGGGDDLAVVKAAAWAWYLRKEGKPIMREFDVTRAQRIPRPSRYKIEATKNMILSENRVLAENRVSSTKSPLWYTNYQFRGDQETYYSRLLDTYETKNISKRLNIDDSSFSTSLSSVLKHNGDDHHNHNRNDDYGFDDHGLLKKRNGSDSNTTTRSKTNNDKSYNGGFMKKVSKRSLWKGMIVMGPGSTVCGRSDDVASQAGRRTVKVAVAAEALVRSAASGSGKTQSGHC,failed
18,MLPNLNRIPQVEQYVLDYLDDLQCQHFEGDIATNYADRLSLATDNSVYQQLPQAILFPKTVADIVRITKLANLPEYQSISFTPRGGGTGTNGQSINNNIIVDLSRHMTA,failed
19,MLPPYNYMDNGTLKGISIDLLEAITEKMGKKVTREEIHLVSWTEGYQAALTRNNTVLFVTARTPEREQSFKWVGPIYSDKYVLFAKRDPGVTIDGPEDLKEYRIGVISDDLEHHHHHH,failed
